Residue numbers refer to the chain shown, from its start.

The labels stand for the following.
B1: G9.2-17 Fab (Fab, V domains shown)
VH: EVQLVESGGGLVQPGGSLRLSCAASGFTVSSSSIHWVRQAPGKGLEWVAYISSSSGYTYYADSVKGRFTISADTSKNTAYLQMNSLRAEDTAVYYCARYWSYPSWWPYRGMDYWGQGTLVTVSS
VL: DIQMTQSPSSLSASVGDRVTITCRASQSVSSAVAWYQQKPGKAPKLLIYSASSLYSGVPSRFSGSRSGTDFTLTISSLQPEDFATYYCQQSSTDPITFGQGTKVEIKR
B2: G9.2-3 Fab (Fab, V domains shown)
VH: EVQLVESGGGLVQPGGSLRLSCAASGFTFSSSSIHWVRQAPGKGLEWVASISSSSGSTSYADSVKGRFTISADTSKNTAYLQMNSLRAEDTAVYYCARPAYSYPYYYFHYGAMDYWGQGTLVTVSS
VL: B1 VL with T93S, D94S, P95L
B3: G9.2-15 Fab (Fab, V domains shown)
VH: EVQLVESGGGLVQPGGSLRLSCAASGFTVSSSSIHWVRQAPGKGLEWVASIYSSSGYTSYADSVKGRFTISADTSKNTAYLQMNSLRAEDTAVYYCARNVENYPYWAWPWGYYGAIDYWGQGTLVTVSS
VL: B1 VL with T93W, D94G, P95L
B4: G9.2-1 Fab (Fab, V domains shown)
VH: EVQLVESGGGLVQPGGSLRLSCAASGFTLYSSSIHWVRQAPGKGLEWVASIYSSSGYTYYADSVKGRFTISADTSKNTAYLQMNSLRAEDTAVYYCARTYTWKSSWSYQTGYGLDYWGQGTLVTVSS
VL: DIQMTQSPSSLSASVGDRVTITCRASQSVSSAVAWYQQKPGKAPKLLIYSASSLYSGVPSRFSGSRSGTDFTLTISSLQPEDFATYYCQQYKSKYPFTFGQGTKVEIKR
B5: G9.2-17mut6 Fab (Fab, V domains shown)
VH: B1 VH with W106S
VL: B1 VL
B6: G9.1-6 Fab (Fab, V domains shown)
VH: EVQLVESGGGLVQPGGSLRLSCAASGFTLSSSSIHWVRQAPGKGLEWVASIYSSYGSTSYADSVKGRFTISADTSKNTAYLQMNSLRAEDTAVYYCARSSHWYMYWSYWGWYIGMDYWGQGTLVTVSS
VL: B1 VL with S91Y, S92H, T93S, D94S, P95L, I96F
B7: G9.1-11 Fab (Fab, V domains shown)
VH: EVQLVESGGGLVQPGGSLRLSCAASGFTVYSSSIHWVRQAPGKGLEWVASIYSYYGYTSYADSVKGRFTISADTSKNTAYLQMNSLRAEDTAVYYCARSTEGYDRWGYYSSYWSSGLDYWGQGTLVTVSS
VL: B1 VL with S91T, S92Y, T93W, D94G, P95L
B8: G9.1-5 Fab (Fab, V domains shown)
VH: EVQLVESGGGLVQPGGSLRLSCAASGFTIYYSSIHWVRQAPGKGLEWVASISSSYGSTYYADSVKGRFTISADTSKNTAYLQMNSLRAEDTAVYYCARSVSWYPYYYYYGYGSGLDYWGQGTLVTVSS
VL: DIQMTQSPSSLSASVGDRVTITCRASQSVSSAVAWYQQKPGKAPKLLIYSASSLYSGVPSRFSGSRSGTDFTLTISSLQPEDFATYYCQQYYGWFYPVTFGQGTKVEIKR
B9: G9.1-8 Fab (Fab, V domains shown)
VH: EVQLVESGGGLVQPGGSLRLSCAASGFTVSSSSIHWVRQAPGKGLEWVAYIYPYSGYTSYADSVKGRFTISADTSKNTAYLQMNSLRAEDTAVYYCARYSTYSWGGIGKWVWGMDYWGQGTLVTVSS
VL: B8 VL with Y91S, G93Y, W94D, F95S, Y96N, V98I

T1 sequence (O00182 218-355): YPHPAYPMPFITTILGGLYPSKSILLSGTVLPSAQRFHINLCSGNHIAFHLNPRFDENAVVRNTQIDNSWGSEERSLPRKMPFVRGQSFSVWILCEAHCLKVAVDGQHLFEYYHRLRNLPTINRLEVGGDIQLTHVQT

One test addresses T1, human Galectin-9 CRD2 (residues 218-355), biotinylated (UniProt O00182 218-355, biotinylated in vitro with BirA (Avitag)). The test can be described thus: bead-based binding assay; apparent Kd.
For the molecule B1, the Kd was 0.76 nM.

Take B2: the Kd was 1380 nM.

For the molecule B3, the Kd was determined as 0.71 nM.

B4: the Kd turned out to be 4170 nM.

The target of a further test is T1, human Galectin-9 CRD2 (residues …). The test is described as follows: SPR.
B1 showed a Kd of 0.219 nM.

On to B5, for which the Kd worked out at 0.154 nM.

In a further test the target is human Galectin-9 CRD1 (residues 1-148), biotinylated (UniProt O00182 1-148, biotinylated in vitro with BirA (Avitag)). The test is described as follows: bead-based binding assay; apparent Kd; plots and legend state CRD1.
Chain of human Galectin-9 CRD1 (residues 1-148), biotinylated (O00182 1-148): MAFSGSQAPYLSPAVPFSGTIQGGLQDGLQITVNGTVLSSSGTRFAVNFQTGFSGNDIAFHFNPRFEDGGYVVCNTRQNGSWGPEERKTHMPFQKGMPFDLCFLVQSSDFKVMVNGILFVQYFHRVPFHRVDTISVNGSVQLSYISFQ
For the molecule B6, the Kd came to 29.2 nM.

As to B7, the Kd amounted to 20.4 nM.

As to B8, the Kd is 30.4 nM.

B9: the Kd amounted to 9.8 nM.

In a further test the target is T1, human Galectin-9 CRD2 (residues …). The test is described as follows: SPR. The source holds these as a separate data set. Background: SPR reads the build-up and loss of mass on a sensor chip optically.
B1: the Kd was 0.232 nM.

B3 registered a Kd of 4.8 nM.
